Assay results as given in patent publication US20200283528A1 (NUMAB THERAPEUTICS, published 2020).
Numbering of substitutions follows the chain as printed.

T1: Fc tagged human PDL2 (human, UniProt Q9BQ51 20-219)
T1 construct: not shown: Fc tag
T1 sequence (looked up): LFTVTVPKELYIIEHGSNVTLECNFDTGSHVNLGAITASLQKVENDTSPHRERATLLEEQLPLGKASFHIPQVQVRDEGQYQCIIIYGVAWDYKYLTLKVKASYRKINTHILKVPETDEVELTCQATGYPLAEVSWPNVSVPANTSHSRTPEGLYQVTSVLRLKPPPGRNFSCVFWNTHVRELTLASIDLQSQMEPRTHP

B1: PRO997/PRO908 (37-20-B03-sc01 scFv) (scFv)
scFv: DIQMTQSPSSLSASVGDRVTITCQASQSIGTYLAWYQQKPGKAPKLLIYRAFILASGVPSRFSGSGSGTDFTLTISSLQPEDFATYYCQSNFYSDSTTIGPNAFGTGTKVTVLGGGGGSGGGGSGGGGSGGGGSQVQLQESGPGLVKPSETLSLTCKVSGFSFNSDYWIYWIRQPPGKGLEWIGSIYGGSSGNTQYASWAQGRVTISVDSSKNQFSLKLSSVTAADTAVYYCARGYVDYGGATDLWGQGTLVTVSS
notes: VL-linker-VH, VH4 CDR graft; PRO997 was made in CHO-S cells, PRO908 in bacteria; also called 37-20-B03 CDR
B2: PRO885 (38-02-A04 sc01 scDb-i/33-03-G02 sc01 scDb-o) (bispecific antibody)
chain: DIQMTQSPSSLSASVGDRVTITCQASQSINDYLAWYQQKPGKAPKLLIYKASTLASGVPSRFSGSGSGTDFTLTISSLQPEDFATYYCQQGYIITDIDNVFGTGTKVTVLGGGGGSQVQLQESGPGLVKPSETLSLTCKVSGFSFSNSYWICWIRQPPGKGLEWIGCTFVGSSDSTYYANWAKGRVTISVDSSKNQFSLKLSSVTAADTAVYYCARHPSDAVYGYANNLWGQGTLVTVSSGGGGSGGGGSGGGGSGGGGSIQMTQSPSSLSASVGDRVTITCQASQSINNVLAWYQQKPGKAPKLLIYRASTLASGVPSRFSGSGSGTDFTLTISSLQPEDFATYYCQSSYGNYGDFGTGTKVTVLGGGGGSQVQLQESGPGLVKPSETLSLTCKVSGFSFSSGYDMCWIRQPPGKGLEWIGCVVAGSVDITYYASWAKGRVTISVDSSKNQFSLKLSSVTAADTAVYYCARKDAYSDAFNLWGQGTLVTVSS
B3: PRO1126 (38-02-A04 sc01 scDb-i/33_03_G02 sc03 Full scDb-o) (bispecific antibody)
chain: B2 chain with I2F, M4L, A43S, V374S, V396A, I410V, G422A, V446K, F453V, Y469F
B4: PRO1392 (33-03-G02-sc18 scFv) (scFv)
scFv: DIQMTQSPSSLSASVGDRVTITCQASQSINDYLAWYQQKPGKAPKLLIYKASTLASGVPSRFSGSGSGTDFTLTISSLQPEDFATYYCQQGYIITDIDNVFGTGTKVTVLGGGGGSGGGGSGGGGSGGGGSQVQLQESGPGLVKPSETLSLTCKASGFSFSSGYDMCWVRQPPGKGLEWIACVVAGSVDITYYASWAKGRVTISKDSSKNQVSLKLSSVTAADTAVYYCARKDAYSDAFNLWGQGTLVTVSS
B5: PRO1183 (33-03-G02-sc03 scFv) (scFv)
scFv: B4 scFv with I2F, M4L, A43S, V133S, Y228F
notes: also called 33_03_G02 sc03 Full
B6: PRO830 (33-03-G02-sc01 scFv) (scFv)
scFv: B4 scFv with A155V, V169I, A181G, K205V, V212F
notes: also called 33-03-G02 CDR

Experiments:
[1] = biological target: T2, human PDL1 expressed on cells (human, UniProt Q9NZQ7 19-290); assay: cell-based or functional assay
[2] = biological target: T3, human PDL1 (recombinant, soluble) (human, UniProt Q9NZQ7 19-238); assay: PDL1/PD-1 competition ELISA; PD-1 coated, biotinylated PDL1 1 ng/ml
T3 construct: also called hPDL1; hPD-L1
Experimental: (§1) ELISA microplates coated overnight at 4° C. with 4 μg/ml human PD-1 were washed three times with 450 μl wash buffer per well. Plates were blocked for 1 hour at room temperature by adding 300 μl of PBS with 1% BSA and 0.2% tween (dilution buffer) to each well. […] The mixtures were pre-incubated for 1 hour at room temperature under gentle agitation on a rotating mixer (21 rpm) and added to the microplates after 3 wash cycles with 450 μl wash buffer per well. Plates were incubated for 1.5 hours at room temperature under gentle agitation, then 10 ng/ml streptavidin-polyHRP40 was added to each microplate well after three washes with 450 μl of wash buffer per well. After 1 h incubation at RT, plates were washed three times with 450 μl wash buffer and TMB substrate solution was added. The enzymatic reaction was stopped after 6 minutes by addition of 1 M HCl and absorbance was measured at 450 nm using 690 nm as a reference wavelength. For calculation of IC₅₀ values, a four-parameter logistic (4PL) curve fit was performed in Graph Pad Prism using reference subtracted values.

[3] = biological target: T3, human PDL1 (recombinant, soluble); assay: PDL1/B7-1 competition ELISA; B7-1 coated; scFv
Experimental: (§2) ELISA plates were coated by adding 50 μl of PBS containing 4 μg/ml B7-1 overnight at 4° C. Next day, plates were washed three times in overflow mode with 450 μl wash buffer (PBS, 0.005% Tween 20) per wells and 300 μl of blocking buffer (PBS, 1% BSA, 0.2% Tween 20) were added to each well for 1 h at RT on a nutating mixer. […] ELISA pates were washed 3 times in overflow mode with 450 μl wash buffer and two times 50 μl of each dilution was added in adjacent wells of the ELISA plates in order to generate duplicates. Plates were incubated 90 minutes at RT under gentle agitation. After three washes with 450 μl of washing buffer, 50 μl of streptavidin-polyHRP40 was added to each wells of the ELISA plate. After 1 h incubation at RT, plates were washed three times with 450 μl wash buffer and developed for 5 to 10 minutes after addition of 50 μl TMB. Finally, the enzymatic reaction was stopped by addition of 50 μl of 1 M HCl and plate was read at 450 nm using 690 nm as a reference wavelength.

Fc tagged human PDL1 [4] = biological target: T4, Fc tagged human PDL1 (human, UniProt Q9NZQ7 19-238); assay: SPR Biacore T200; PDL1-Fc captured
T4 construct: also called PDL1-Fc chimeric protein (human); not shown: Fc tag
Experimental: (§3) An antibody specific for the Fc region of human IgGs was immobilized on a sensor chip (CM5 sensor chip, GE Healthcare) by amine-coupling. […] After each injection cycle, surfaces were regenerated with one injection of a 3 M MgCl₂ solution. The apparent dissociation (kd) and association (kₐ) rate constants and the apparent dissociation equilibrium constant (KD) were calculated using one-to-one Langmuir binding model.

[5] = biological target: T3, human PDL1 (recombinant, soluble); assay: PDL1/B7-1 competition ELISA; B7-1 coated, biotinylated PDL1 40 ng/ml
Experimental: as §1, with “B7-1” for “PD-1”

[6] = biological target: T2, human PDL1 expressed on cells; assay: cell-based or functional assay; remark: listed apart in the source
Fc tagged human PDL1 [7] = biological target: T4, Fc tagged human PDL1; assay: SPR Biacore T200; PDL1-Fc captured; molecule 0.12-90 nM
Experimental: as §3

Fc tagged human PDL1 [8] = biological target: T4, Fc tagged human PDL1; assay: SPR Biacore T200; Fc tagged PDL1 captured; scFv 0.12-30 nM
Experimental: (§4) After each analyte injection cycle, the CM5 sensor chip was regenerated and new antigen was captured. The scFvs were injected as analyte using a dose response multicycle kinetic assay with concentrations of the analyte ranging from 0.12 to 30 nM diluted in running buffer for 5 min and dissociation of the protein was allowed to proceed for 12 min. Obtained sensorgrams were fitted using the 1:1 binding model.

[9] = biological target: T2, human PDL1 expressed on cells; assay: cell-based or functional assay; remark: listed apart in the source
[10] = biological target: T3, human PDL1 (recombinant, soluble); assay: PDL1/PD-1 competition ELISA; PD-1 coated; scFv
Experimental: as §2, with “4 μg/ml PD-1 overnight at” for “4 μg/ml B7-1 overnight at”, “μl of 10 ng/ml streptavidin-polyHRP40 were” for “μl of streptavidin-polyHRP40 was”, “ng/ml streptavidin-polyHRP40 were added to” for “of streptavidin-polyHRP40 was added to”, “the ELISA plates. After 1” for “the ELISA plate. After 1”

[11] = biological target: cynomolgus PDL1, recombinant (Sino Biological) / PDL1-Fc chimeric protein (cynomolgus (Macaca fascicularis), UniProt G7PSE7 19-238); assay: SPR Biacore T200; cynomolgus PDL1 (Sino Biological) captured; scFv as analyte
Experimental: as §4

[12] = biological target: T2, human PDL1 expressed on cells; assay: cell-based or functional assay; remark: listed apart in the source
Fc tagged human PDL2 = biological target: T1, Fc tagged human PDL2; assay: SPR Biacore T200; Fc tagged human PDL2 captured; scFv as analyte
Experimental: Humanized scFvs were tested for binding to PDL2 by SPR analysis on a T200 device (Biacore, GE Healthcare). In this experiment, Fc tagged human PDL2 was captured using the Human Antibody Capture kit from GE healthcare. After each analyte injection cycle the CM5 sensor chip was regenerated and new antigen was captured. The scFvs were injected as analyte at a concentration of 180 nM diluted in running buffer for 5 min and dissociation of the protein was allowed to proceed for 12 min.

[13] = biological target: T2, human PDL1 expressed on cells; assay: flow cytometry on CHO-PDL1 cells; scFv detected by APC labelled protein-L

cynomolgus PDL1, recombinant (Sino Biological) / PDL1-Fc chimeric protein, sequence (G7PSE7 entry or part of it mutant limits assumed): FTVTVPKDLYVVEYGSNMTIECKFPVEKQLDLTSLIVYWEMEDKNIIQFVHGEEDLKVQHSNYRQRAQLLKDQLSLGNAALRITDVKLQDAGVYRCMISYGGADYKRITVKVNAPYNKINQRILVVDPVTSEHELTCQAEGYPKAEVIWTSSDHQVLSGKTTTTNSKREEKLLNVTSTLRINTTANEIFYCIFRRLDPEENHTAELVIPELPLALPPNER

IC50 [2] [ng/mL] | IC50 [3] [ng/mL] | Maximum Inhibition (%) [3] [%] | IC50 [5] [ng/mL] | IL-2 secretion of SEA stimulated PBMC, EC50 in ng/ml [6] [ng/mL] | Kd (Fc tagged human PDL1 [7]) [pM] | Kd (Fc tagged human PDL1 [8]) [pM] | koff (Fc tagged human PDL1 [8]) [s⁻¹] | kon (Fc tagged human PDL1 [8]) [M⁻¹ s⁻¹] | reporter gene assay IC50 [9] [ng/mL] | reporter gene assay Maximum Inhibition (%) [9] [%] | IC50 [10] [ng/mL] | Maximum Inhibition (%) [10] [%] | KD, cyno/KD, human [11] | Kd [11] [pM] | kon [11] [M⁻¹ s⁻¹] | NF-AT potency assay IC50 [12] [ng/mL] | binding result (Fc tagged human PDL2) | koff [11] [s⁻¹] | also measured | Binder
0.5 | 1.21 | 93.1 | 6.36 | 40.9 | 1.7 | 5.94 | 4.02e-05 | 6.76e+06 | 8.02 | 95.3 | 0.33 | 100 | < 0.28 | < 1.68 | 5.96e+06 | 11.1 | – | – | NFAT reporter gene assay, fold potency of VH4 graft (PRO997) against VH1 graft (PRO1013) [1]: ~2 fold; fold higher affinity against the STR graft of clone 33-03-G02 (Fc tagged human PDL1 [4]): ~2 fold | B1
8.35 | – | – | 12.2 | 39.9 | – | – | – | – | – | – | – | – | – | – | – | 137 | – | – | – | B2
1.28 | – | – | – | – | 3.5 | – | – | – | – | – | – | – | – | – | – | – | – | – | NFAT reporter gene assay IC50 [1]: 48.1 ng/mL; NFAT reporter gene assay, improvement of neutralization potency against PRO885 [1]: 3 fold; fold improvement in affinity against the CDR graft (PRO885) (Fc tagged human PDL1 [4]): 20 fold | B3
– | 1.19 | 93.2 | – | – | – | 9.94 | 6.16e-05 | 6.19e+06 | 12 | 96.7 | 0.47 | 99.9 | 2 | 19.9 | 4.45e+06 | – | no binding (tested: 180 nM) | 8.87e-05 | – | B4
– | 0.977 | 95.4 | – | – | – | < 2.1 | < 1e-05 | 4.77e+06 | 9.98 | 102 | 0.36 | 99.8 | < 5.58 | 11.7 | 1.55e+06 | – | no binding (tested: 180 nM) | 1.82e-05 | – | B5
3.4 | 6.11 | 94.5 | 12.9 | – | – | – | 0.000159 | – | 37.5 | 105 | 3.45 | 99.8 | 0.97 | 74 | 2.46e+06 | 42.9 | – | 0.000182 | EC50 [13]: 20.2 ng/mL | B6
